Measured values from publication PMC11270187 (Antibodies, 2024).
Positions count from the first letter of the chain named. In names and notes the source's numbering stands.

B1:  (Fab, V domains shown)
VH: QVQLQESGPGLVKPSETLSLTCTVSGFSLTSYGVHWIRQPPGKGLEWIGVIWAGGSINYNSALMSRVTISKDTSKNQVSLKLSSVTAADTAVYYCARAYGDYVHYAMDYWGQGTLVTVSS
VL: DIQMTQSPSSLSASVGDRVTITCRASQEISGYLTWLQQKPGKAPKLLIYAASTLDSGVPSRFSGSGSGTDFTLTISSLQPEDFATYYCLQYTNYPLTFGQGTKLEIK
notes: as the heavy chain of m11 with the changes below; as the light chain of m11; also called V14-V71K/F78V double mutant; V14-V71K-F78V; source: FreeStyle 293-F, transfected, purified (KappaSelect, MonoS, SEC)
B2: humanized 44H10 version 19 IgG (V17 with light chain G66R back-mutation) (antibody, V domains shown)
VH: QVTLKESGPVLVKPTETLTLTCTVSGFSLTSYGVHWIRQPPGKALEWLAVIWAGGSISYSTSLMSRLTISKDTSKSQVVLTMTNMDPVDTATYYCARAYGDYVHYAMDYWGQGTLVTVSS
VL: B1 VL with G66R
notes: as the heavy chain of m5; as the light chain of m5 with the change below; IgG with human Fc; also called V19; source: FreeStyle 293-F, transfected, purified (protein A, SEC)
B3: humanized 44H10 version 21 IgG (V17 with light chain S60K and G66R back-mutations) (antibody, V domains shown)
VH: B2 VH
VL: B1 VL with S60K, G66R
notes: as the heavy chain of m5 (IGHV2-26 with Kabat 44H10 CDRs); as the light chain of m5 with the changes below; IgG with human Fc; also called V21; source: FreeStyle 293-F, transfected, purified (protein A, SEC)
B4: humanized 44H10 version 20 IgG (V17 with light chain S60K back-mutation) (antibody, V domains shown)
VH: B2 VH
VL: B1 VL with S60K
notes: as the heavy chain of m5; as the light chain of m5 with the change below; IgG with human Fc; also called V20; source: FreeStyle 293-F, transfected, purified (protein A, SEC)
B5: humanized 44H10 version 22 IgG (antibody, V domains shown)
VH: B1 VH
VL: B1 VL with S60K, G66R
notes: as the heavy chain of m10 (IGHV4-59 with Kabat 44H10 CDRs) with the back-mutations below; as the light chain of m5 (IGKV1-16, printed here as IGHK1-16, with Kabat 44H10 CDRs) with the back-mutations below; IgG with human Fc; also called V22; lead humanized candidate; source: FreeStyle 293-F, transfected, purified (protein A, SEC)
B6: parental 44H10 IgG (antibody, V domains shown)
VH: QVQLKESGPGLVAPSQSLSITCTVSGFSLTSYGVHWVRQPPGKGLEWLGVIWAGGSINYNSALMSRLSISKDNFKSQVFLKMSSLQTDDTAMYYCARAYGDYVHYAMDYWGQGTSVTASS
VL: DIQMTQSPSSLSASLGQRVSLTCRASQEISGYLTWLQQKPDGTIKRLVYAASTLDSGVPKRFSGSRSGSDYSLTISSLESEDFADYYCLQYTNYPLTFGAGTKLELK
notes: murine IGHV2-9; Fab part also in PDB 8EUQ; murine IGKV9-124; also in PDB 8EUQ; IgG; also called mAb 44H10; murine mAb 44H10; source: FreeStyle 293-F, transfected, purified (protein A, SEC)

Experiments:
[1] = molecular target: T1, TEV-cleaved recombinant HLA-DR (Homo sapiens, …); assay: BLI; Fabs loaded on FAB2G biosensors; two-fold dilutions of TEV-cleaved HLA-DR from 500 nM; 25 °C; PBS pH 7.4, 0.01% BSA, 0.002% Tween; 1:1 model; settings: both partners purified
T1 construct: also called TEV-cleaved HLA-DR; source: HEK 293S (GnT I-/-), purified (HisTrap Ni-NTA, SEC), TEV-cleaved; for crystallization also EndoH-treated and purified a second time

HLA-DR on BJAB cells [2] = molecular target: T2, HLA-DR on BJAB cells (Homo sapiens; endogenous HLA-DR of BJAB …); assay: flow cytometry on cells; full antibody titration of purified IgGs on HLA-DR-expressing BJAB cells, Fc Block, 1 h at 4 °C, detected with AF488 goat anti-human IgG Fcγ; also after storage of the IgGs at -20, 4 or 40 °C for up to 4 weeks; settings: one partner purified
T2 construct: HLA-DR α chain, endogenous on BJAB B-lymphoblastoid cells; HLA-DR β chain, endogenous on BJAB B-lymphoblastoid cells; also called HLA-DR-expressing B-lymphoblastoid cell line BJAB; source: endogenous, on BJAB cells

HLA-DR on BJAB cells [3] = molecular target: T2, HLA-DR on BJAB cells; assay: flow cytometry on cells; screen: purified IgGs at 10 µg/mL on HLA-DR-expressing BJAB cells, Fc Block, 1 h at 4 °C, detected with AF488 goat anti-human IgG Fcγ; settings: one partner purified

Binder	fold improvement of EC50 against V17 (HLA-DR on BJAB cells [2]) [fold]	further results
B1		Kd [1]: 206 nM
B2	~3	
B3	~3	
B4	~3	
B5		fold reduction in EC50 against parental 44H10 IgG (HLA-DR on BJAB cells [2]): < 2 fold
B6		binding result (HLA-DR on BJAB cells [3]): binds
